US20240352084A1

Tests used:
Conditions in all cases: ligand
[1] = target: human IL-2Rα ectodomain (residues 1-217) with C-terminal biotin acceptor peptide and histidine tag, biotinylated (human) (UniProt P01589); assay: MST; pH 5
[2] = target: human IL-2Rα ectodomain (residues 1-217) with C-terminal biotin acceptor peptide and histidine tag, biotinylated (human) (UniProt P01589); assay: MST; pH 6
[3] = target: human IL-2Rα ectodomain (residues 1-217) with C-terminal biotin acceptor peptide and histidine tag, biotinylated (human) (UniProt P01589); assay: MST; pH 7

Chain of UniProt P01589 (P01589 other isoform, or with tags, fused parts or gaps): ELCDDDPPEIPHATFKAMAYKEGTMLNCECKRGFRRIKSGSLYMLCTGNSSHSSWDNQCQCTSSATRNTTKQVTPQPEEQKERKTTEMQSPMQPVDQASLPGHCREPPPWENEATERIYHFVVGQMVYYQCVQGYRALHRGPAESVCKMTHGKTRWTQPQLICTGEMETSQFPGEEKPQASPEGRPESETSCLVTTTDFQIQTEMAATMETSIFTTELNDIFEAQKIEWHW

Kd [1]: 184 nM
Kd [2]: 90 nM
Kd [3]: 7 nM
Substance: Human IL-2 wild-type (WT; residues 1-133), recombinant, C-terminal histidine tag (from UniProt P60568 21-150)
